Measurements: a protein production outcome set (Wang et al. 2014)

Experiment: label from the status in PepcDB records

MNDIQQALQEALTHHQAGRLGEAKTLYDAILHAQPGQPDAMHFLGLLACQLKQYDAGLALMERSLAERPDASYFNNLGNMLRECGRLDDAIAHYRRAVALRPDYPEAHNNLGNALRDARDPAEAMRSCSRAIELRPGYAEAYNNLGNVLQDLGELDAAAASYGKAIAFHPAYAEAHSNLGNVLRAQERHADAIVHYRRAIELNPALRVAHRGLAIALRATDDFDGALEHARAGLEPDDAEGHCMLGRSLRSMNDFDGAARLFERACEIDPGYAPAWCRLGELRCQQGEYEESLRLCRHAIELDPELADAYNFLGLAYHNLDRMAASELSHRHAIDLNPDDADAHHNLAAALFRLDKLDEAMSEYRIAQELGVDPVKIQLTLGDILWAKRDFSGAVAAFREAVEHDPHRAYARLLFNMSSSPAFAPEEWVVDAQRYGDYLARDARLLSHDREQRARQARGRPLRVGFVSGDLRQHPVGIFLESVLAHLDRTRIEPHAYVTFVVEDDVTARLKTGFASWKKLTCLNRDQAARMIHDDGIDVLVDLAGHTNWSGLPVFAHRPAPVQASWLGFFATTGCRAIDYFIGDPHTLPADEAHHFVEQPWHLPDSYLCFTPPAYDVAVGPLPMATNGGVTFGCFGKLTKISDDVIALWSRLLHALPDARLMLKAHELGASDLNRATLERFARHGIGAHQLILEGGSPRAEYFNAYNRIDIALSPFPYPGGTTTAEALWMGVPVIGMKGGRFVTHICESLLHAAGMGDWIAADEDAYLAKAIAFAGDRDALAALRATLRERTLASPLCDAARFARNLEDAFHGMWARYVAGDTDGART
protein production: failed

MPPRKKPKSSALKSNKQSSANHSSQPSTFGIQQLFLRHIQNSQSTSNSHTSTADPVDQQNVNGLASDTAVLTPQNPLGTSNEKPDESKDMDQQLTEASPKISKNLKRFSPGMLIKQSQDDCGGEITWKISPVNERLRAAAKNIPKMMDLTENSLGKQCPTSGITSKVEQWLSSPSKKASKRPAFATNRVMERVNPSPDAEFEIVNTSSSGNSPFQTPPSLSCPHNKLPCTVTCSGACGSMGAGQHKKALLELLDQVEDVIAVDDKTTDDVGIVMPQARVKDDIISSVVDCAVDEGPVSLPKMQNSINPDSYFLVLEVSEKRGSGSSSKGQCPYKVLRLLDEHTGVECALYLWDEWFYSTVSPGDSINVIGEFDGDGKCDVDRQNNFLIVHPDTLVAGTRVAASFGCPRRTVLDERLRSNEHATVALLGTLQHQVFQAGLSQESPSVDGLQEYASTVIEKSIESLYACGVHEGDVRSTLFKAIPKMLNWIEHFRYSKDSEVSKVDFGSTIGKKAVKVSEVIDIEEMSWAPKYGLKGMIDASVRVIVESDMNTVNEKIMPLEFKSGKAPSGQSSIEHSAQVILYTLLMSERYLKHIDNGLLYYLQSDQTQGISVQRSDLVGLIIRRNELANDILVASTTQQLPPMLRADGGNTESSGLGDVFDTHVSHLSTLHFNFLRHWDRLIDLEGREMQLLRKDIAHPHGSKGSHSASYLSSMVLDVTNGFQHHNSHKETRFIYRFVRQKSSESRERVTSEDMIRTGNLATDDLDCKLRTGDRVILRTEVSHLTVANGIIADISRTHISVSLSKRLRLPWSEPSSEVSNLSHELWRIYKDEFMTSFSVMRFNLMQLFVQNGHNIRKMIVDLEPPRFDNGSILSQDPAISYIWSEKSLNNDQRQAILKILTAKDYALILGMPGTGKTSTMVHAVKALLIRGSSILLASYTNSAVDNLLIKLKAQGIEFLRIGRDEAVHEEVRESCFSAMNMCSVEDIKKKLDQVKVVASTCLGINSPLLVNRRFDVCIIDEAGQIALPVSIGPLLFASTFVLVGDHYQLPPLVQSTEARENGMGISLFRRLSEAHPQAISVLQNQYRMCRGIMELSNALIYGDRLCCGSAEVADATLVLSTSSSTSPWLKKVLEPTRTVVFVNTDMLRAFEARDQNAINNPVEASIIAEIVEELVNNGVDSKDIGIITPYNSQASLIQHAIPTTPVEIHTIDKYQGRDKDCILVSFVRSREKPRSSASSLLGDWHRINVALTRAKKKLIMVGSQRTLSRVPLLMLLLNKVKEQSGILNLLPGDLKP
protein production: failed

MEKPGGFWIPKKSNKESSWEELAFAEDDAAGSLWPPRSYTCSFCRREFKSAQALGGHMNVHRRDRARLKQADDQYLFPKSSSSPEYPSHKDSDNIHETSCYTLVFNTKPNYFKTQHSCVIDLSSSSSLPYLTPSRVSSGLPGKQHTSSSPPSFVVEPSKNSKYIPSSSPWSCPSTVVEQKSCDLYEIPAMEGEKKRKTESDVPKIGHKAKLSLGNTTDLSVSMNLVIHQSFPITAHGSDEEIGRVDIRKRRRRHESPSQQSIFISSLSCKSDIITRNEESKHKGDRFEDLDLELRLGTDPPKGI
protein production: failed

MKKNYMKALVVATTLAIPFATYSTPALAALKVEANQSVAAASDRTYDTEIKIYKDQKDEPSMVSQYIKDPKVTIAAGKKIVTVTMQDSDYFQYLRIEDKNQPGVFHDVKVLSEDKRKNGTKVVQFEIGEFEKKHNMQMHILIPAIGYDHKYQVQFEIKDPTVGNKETEKPDDNSNSGNTETDNPVDNQNMITDNKLRELVNKKVFNRKDLNTPITKEDLLQVKDLFLNTNEILDYSALKYMPNLKSLTVANAKIKDPSFFANLKQLNHLALRGNEFADVTPLVKMDNLESLDLSNNKITNVAPLTEMKNVKSLFLSGNQIEDVTALAKMEQLDYLNLANNKITNVAPLSNLKNVTYLTLAGNQIEDIKPLYTLPLKDLVLTRNKVKDLSGIDQLNQLQELWIGKNEITDVTPLSKMTQLKILNLPNNELKDITPLSSLVNLQKLDLEANYISDLSPVSNLKKLVFLSFVANEIRDVRPVIELSKTAYINVQNQKVFLEETEVNKEVKVPIYEKDGEISTKIRLKSDNGTYSNGVVKWSTPGEKVYEFGVKDPFADTGIFFTGSVIQNVVESKDGNTSKEDEKTEVVEFKDVPKGHWSEEAINYLAKEKLFIGYGNGEFGFGDNITRGQVALLIQRYLKLENNLEQKTAFTDTKGNMYETAIDAVVQAGIMTGYGNGMFRPDGVLTRYEMSVVLQRVFQLKENENSAENFKDVPNGHWAKGYVKALVDNKISKGDGEGNFLGDNFVTREQYAQFLYNAIKK
protein production: failed

MISAHCNLRLLCSSDSSASASQVAGTTEVVENLVTNDNSPNIPEAIDRLFSDIANINRESMAEIADIQIEEMAVNLWNWALTIGGGWLVNEEQKIRLHYVACKLLSMCEASFASEQSIQRLIMMNMRIGKEWLDAGNFLIADECFQAAVASLEQLYVKLIQRSSPEADLTMEKITVESDHFRVLSYQAESAVAQGDFQRASMCVLQCKDMLMRLPQMTSSLHHLCYNFGVETQKNNKYEESSFWLSQSYDIGKMDKKSTGPEMLAKVLRLLATNYLDWDDTKYYDKALNAVNLANKEHLSSPGLFLKMKILLKGETSNEELLEAVMEILHLDMPLDFCLNIAKLLMDHERESVGFHFLTIIHERFKSSENIGKVLILHTDMLLQRKEELLAKEKIEEIFLAHQTGRQLTAESMNWLHNILWRQAASSFEVQNYTDALQWYYYSLRFYSTDEMDLDFTKLQRNMACCYLNLQQLDKAKEAVAEAERHDPRNVFTQFYIFKIAVIEGNSERALQAIITLENILTDEESEDNDLVAERGSPTMLLSLAAQFALENGQQIVAEKALEYLAQHSEDQEQVLTAVKCLLRFLLPKIAEMPESEDKKKEMDRLLTCLNRAFVKLSQPFGEEALSLESRANEAQWFRKTAWNLAVQCDKDPVMMREFFILSYKMSQFCPSDQVILIARKTCLLMAVAVDLEQGRKASTAFEQTMFLSRALEEIQTCNDIHNFLKQTGTFSNDSCEKLLLLYEFEVRAKLNDPLLESFLESVWELPHLETKTFETIAIIAMEKPAHYPLIALKALKKALLLYKKEEPIDISQYSKCMHNLVNLSVPDGASNVELCPLEEVWGYFEDALSHISRTKDYPEMEILWLMVKSWNTGVLMFSRSKYASAEKWCGLALRFLNHLTSFKESYETQMNMLYSQLVEALSNNKGPVFHEHGYWSKSD
protein production: failed

MKSWPRPCSWACANPETKGRAYRTMSSSPTISPASDTFAAMTDDHRLAEFIREQASATRVVIQARKRLSGGAIQENWLLDLLIEGGPWAGVRRWVLRSDALSALPASLDREQEFAVLQVVYQAGVKVPRPLWLCRDVRVHGRVFFLMEYVPGSAAGRALSTGAGPQGRAQLATQLGANLARLHQVRPPCATLCFLSVPDSSPALATIDAYRRYLDTLADAYPVLEWGLRWCELHAPRSSTLCLLHRDYRTGNYLASEEGLEAVLDWEFTGWGDPCEDLGWFTARCWRFTRPDLEAGGIGQLEDFLRGYHEVSSLCIERSRLHYWQVMATLRWAVIALQQGQRHLSGEEPSLELALTARLLPELELDILHMTGAEAP
protein production: failed

MASEFDLIQRYFRRAHPSAVLGVGDDAALIQPSPGMELAVSADMLVANTHFYPNIDPWLIGWKSLAVNISDMAAMGAQPRWATLTIALPEADEDWISKFAAGFFACAAQFDIALIGGDTTRGPLTISVQIMGETPPGASLLRSTARADDDIWVSGPLGDAALALAAIQGRYPLSDTELAACGKALHQPQPRVVLGQALRGLAHSALDISDGLLADLGHILEHSQVGAEVWLKAIPKSEVVSAHSQEVAIQKMILSGGDDYELCFTASTQHRQQIADIGRQLSLDMAVIGRITDTQQLVIHGLDDAPLTLKEHGFDHFA
protein production: not failed

MADLSFIEDTVAFPEKEEDEEEEEEGVEWGYEEGVEWGLVFPDANGEYQSPINLNSREARYDPSLLDVRLSPNYVVCRDCEVTNDGHTIQVILKSKSVLSGGPLPQGHEFELYEVRFHWGRENQRGSEHTVNFKAFPMELHLIHWNSTLFGSIDEAVGKPHGIAIIALFVQIGKEHVGLKAVTEILQDIQYKGKSKTIPCFNPNTLLPDPLLRDYWVYEGSLTIPPCSEGVTWILFRYPLTISQLQIEEFRRLRTHVKGAELVEGCDGILGDNFRPTQPLSDRVIRAAFQLEHHHHHH
protein production: not failed

MIDFNDIPQPEAQDRQARREEIRAALLARLESVLFALLPAGKKRGGKFLIGDVLGSPGDSLEVVLDGEKAGLWTDRATGDGGDIFGLIAAHLGADVHADFPRVLDVAADLVGRAHPAPPRKARSAPPVDGLGPATAKWDYFDPAGKLIAVVYRYDPPGRKKEFRPWDARRRKMAPPEPRPLYNQPGLVAADTVVLVEGEKCAQALIDIGVAATTAMHGANAPVDKTDWSPLAGKAVLIWPDRDKPGWEYAMAAAQAALAVGAMSCDVLLPPDDRSEGWDAADAVAEGFDVAGFLAFGPRMSIKPASVTPTQEPSVWATDDALALAFTSRYAEDWRYCAAWGKWLVWDGRRWQADETLLVHHLIRAICREAALKADSHRLAAKLAASSTVGGVERLARTDRRHASTSEEWDADLFALNTPSGIVDLKTGRIKPHDRRERMTKLATATPHGDCARWRAFLEDITGGDTALQAYLQRMVGYCLTGATSAHALFFLYGTGANGKSVFVNTLATILGDYATSAPMDTFMEARGDRHPTDLAGLRGARFVSSIETEQGRRWNESKVKAITGGDKVSARFMRQDFFEYLPQFKLVIAGNHKPAIRNVDEAMKRRLHLIPFTVTIPPEKRDGQLTEKLLAERDGILAWAVEGCLAWQRDGLNPPASVVSATEEYFDEEDAIGDFLDEEAQRFEQARVAVADVFQRWQEWATRRGEYVGTSRWLAQQLANRGFGRARLHGGVKGLAGLSLKPRDYGTRLPYRDD
protein production: failed

MEEVLKLKIPASTANLGVGFDSIGMALDKYLHMSIRKIERSNWEFLYYSSELEGLPKDENNYIYQTALNVAHKYNVTLPSLQIEMRSDIPLARGLGSSASALVGALFIANYFGNIQLSKYELLQLATEIEGHPDNVAPTIYGGLIAGFYNPITKIT
protein production: failed

MRDGVSPEQPKVSVIMPVRDGERWVAEAIRSVQSQTFRDFELLVIDDGSADATPAILAEAAAADPRIFVLTQHRDGLVAGLNRGLAAARAPLIARLDADDIALPDRLARQVDYMTTHPAVVLLGGWATIVDENGQPKGRDMRPNPNDLRATLMKKSPFIHPTVMFRAEAARRVGGYHAAFEAGEDYDFWLRLADIGEVAILPELLIRYREHSASVTRTRQLRQIYSARLAKLAAAARQAGQPDPSAPLTTPPDWHDASPGPFERDSSRLFRMLELADPAVAARIAPSAIDLNAITSQLGTLTAGERKFAQAALLNLLRANKLPSLAARWSAVFLLVRLGPLKAIKAARQLRNR
protein production: failed

SASLLDKAKDFVADKLTAIPKPEGSVTDVDLKDVNRDSVEYLAKVSVTNPYSHSIPICEISFTFHSAGREIGKGKIPDPGSLKAKDMTALDIPVVVSYSILFNLARDVGVDWDIDYELQIGLTIDLPVVGEFTIPISSKGEIKLPTFKDFF
protein production: failed
